This note sets out measurements from US20220153834A1 (UNIVERSITY HEALTH NETWORK, published 2022).

Assay [1] deals with T1, Recombinant human TSG-6 (R&D Biosystems, catalog #2104-TS) (human, UniProt P98066 18-277).
T1 construct: Bought protein; also called hTSG-6; Tumor necrosis factor-inducible gene 6 protein
Nature of the assay: ELISA of hybridoma supernatants on recombinant human TSG-6. On the procedure: (§1) Mouse antibodies directed against mouse TSG-6 protein (mTSG-6) were generated using conventional mouse monoclonal antibody techniques. Briefly, mice (strain SJL/J) were inoculated with KLH-coupled recombinant mouse TSG-6 (R&D Biosystems, catalog #2326-TS). After boosting, antibody titers were determined by ELISA, using a non-relevant His6-tagged protein as a control. Mice selected for fusion were sacrificed and hybridoma fusion was performed using the P3X63Ag8.653 murine myeloma cell line as a fusion partner. Clones were isolated by limiting dilution and selected by ELISA of hybridoma supernatants. Recombinant human TSG-6 (R&D Biosystems, catalog #2104-TS) was used as a substrate for ELISA assays thus facilitating the selection of human- and mouse-cross reactive clones (the two proteins are 92% identical at the amino acid level). Hybridoma mRNA was transcribed to cDNA and amplified by 5′-rapid amplification of cDNA ends (RACE). PCR products were cloned into an appropriate sequencing vector and sequenced by the dideoxy Sanger method. Multiple copies were sequenced to verify the clonality of each clone. Translated protein sequences were entered into the NCBI IgBLAST search tool (Ye, J., et al., 2013, Nucleic Acids Res. 41, W34-40) to identify CDRs.
(An ELISA detects its analyte on a solid surface through an enzyme-linked reagent.)

Assay [2] has as its target T2, Recombinant mouse TSG-6 (R&D Biosystems, catalog #2326-TS) (mouse, UniProt O08859 18-275).
T2 construct: Bought protein, used KLH-coupled as the immunogen; also called mTSG-6
As to the kind of experiment: hybridoma raised against mouse TSG-6; clone selection by ELISA. On the procedure: as §1

T1 sequence (P98066 18-277 limits assumed): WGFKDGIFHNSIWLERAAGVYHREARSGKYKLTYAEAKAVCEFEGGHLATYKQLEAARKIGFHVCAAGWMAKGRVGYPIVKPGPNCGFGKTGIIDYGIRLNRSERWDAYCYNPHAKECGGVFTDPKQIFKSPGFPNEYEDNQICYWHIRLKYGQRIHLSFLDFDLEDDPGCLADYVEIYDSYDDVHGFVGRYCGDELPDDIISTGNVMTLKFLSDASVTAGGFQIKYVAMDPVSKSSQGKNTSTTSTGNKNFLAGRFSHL
T2 sequence (O08859 18-275 limits assumed): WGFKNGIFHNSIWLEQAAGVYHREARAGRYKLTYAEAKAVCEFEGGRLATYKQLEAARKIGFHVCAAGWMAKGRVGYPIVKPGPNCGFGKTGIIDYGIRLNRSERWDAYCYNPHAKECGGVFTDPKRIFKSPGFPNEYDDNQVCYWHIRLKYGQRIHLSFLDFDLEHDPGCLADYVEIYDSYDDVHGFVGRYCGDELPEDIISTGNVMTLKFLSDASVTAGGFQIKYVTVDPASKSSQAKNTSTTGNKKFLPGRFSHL

B1: 5D9 (antibody, V domains shown)
VH: QVQLQQSGAELARPGASVKLSCKASDDTFINYGINWVKQRTGQGLEWIGETFPSNGNTFYNEKFKGKATLTADRSSSTTYMELRSLTSEDAAVYFCARHSNLPYFDHWGQGSTLTVSS
VL: DIVMTQSPSSLSVSAGEKVTMSCKSSQSLLNSGNQKNYLAWYQQKPGQPPKLLIYGASTRESGVPERFTGSGSGTDFTLTISSVQAEDLAVYYCQNDHSYPFTFGGGTNLEIKR
notes: Entries as printed include a leader and part of the constant region
For B1, the binding result in assay [1] and in assay [2] was “binds” throughout.

B2: 1A9 (antibody, V domains shown)
VH: EVQLQQSGPELVKPGASVKISCKASGYTFTDYYMNWVKQSHEKSLEWIGDINPNNGGTSYNQKFMGKATLTVDKSSRTAYMELRSLTSEDSTVYYCARWGIYDRFTYWGQGTLVSVSA
VL: DIKMTQSPSSMYASLGERVTIACKASQDINSFLSWFQQKPGKSPKTLIYRANRLVDGVPSRFSGSGSGQDYSLTISSLEYEDMGIYYCLQYDEFPLTFGAGTKLELKR
notes: as for B1
As to B2, the binding result in assay [1] and in assay [2] was “binds” in each case.

B3: 1D7 (antibody, V domains shown)
VH: EVQLQQSGPELVKPGASVKISCKASGYTFTDYYMNWVKQSHGKSLEWIGDINPNNGGTTYNQKFKGKATLTVDKSSSTAYMELRSLTSEDSAVYYCARWGIFDRFTYWGQGTVVTVSA
VL: DIKMTQSPSSMYASRGERVTITCKASQDINSFLSWFQQKPGKSPKTLIYRANRLVDGVPSRFSGSGSGQDYSLTISSLEYEDMGIYYCLQYDEFPLTFGAGTKLELKR
notes: as for B1
In the case of B3, the binding result in assay [1] and in assay [2] was “binds” throughout.

B4: 5B4 (antibody, V domains shown)
VH: QVQLQQPGAELVKPGASVKLSCKASDYTFTNYWMHWVKQRPGRGLEWIGRIDPSSGGAKYNEKFKSKATLTVDKPSSTAYMEFSSLTSEDSAVYYCVRSRYDYDGWFAYWGLGTLVTVSA
VL: DIVMTQAAPSVPVTPGESVSISCRSSKSLLHSNGNTYLYWFLQRPGQSPQLLIYRMSNLASGVPDRFSGSGSGTAFTLRISRVEAEDVGVYYCMQHLEYPFTFGGGTKLEIKR
notes: Its printed constant part differs from that of the other IgG1 entries; Entries as printed include a leader and part of the constant region
Take B4: the binding result in assay [1] and in assay [2] was “binds” throughout.

B5: 4F1 (antibody, V domains shown)
VH: EVKLVESGGGLVQPGGSLSLSCAASGFTFTDYYMSWVRQPPGKALEWLGFIRHKAKGYTAEYSASVKGRFTISRDNSQSILYLQMNALRAEDSATYYCARLYYYGSPHWYFDVWGTGTTVTVSS
VL: QIVLTQSPAIMSASPGEKVTMTCSASSSVSYMHWYQQKSGTSPKRWIYDTSKLASGVPARFSGSGSGTSYSLTISSMEAEDAATYYCQQWSSNPPTFGSGTELEIKR
notes: as for B1
As to B5, the binding result in assay [1] and in assay [2] was “binds” each time.

B6: 3C6 (antibody, V domains shown)
VH: EVQLQQSGPELVKPGASVKIPCKASGYTFTDYNMDWVKQSHGESLEWIGDIYPNNGGTIYNQKFKDKATLTVDKSSSTAYMELRSLTSEDNAVYYCARKTGTGFDYWGQGTTLTVSS
VL: QIVLSQSPAILSASPGEKVTMTCRARSSVIYMHWYQQKPGSSPKPWIYATFNLASGVPARFSGSGSGTSYSLTISRVEAEDAATYYCQQWSSNPPTFGSGTKLEIKR
notes: Entries as printed include a leader and part of the constant region; also called anti-TSG-6 antibody 3C6
In the case of B6, the binding result in assay [1] and in assay [2] was “binds” in each case.

B7: anti-TSG-6 antibody of SEQ ID NO: 1 and SEQ ID NO: 2 (first entry of Table 1, clone name not printed) (antibody, IgG1, V domains shown)
VH: QVRLQQSGAELAKPGASVKLSCKASGYTFTSYWMHWVKQRPGQGLEWIGYIIPSSGYTKNKQNFKDKATLTADKSSSTAYMQLSNLTYEDSAVYSCARSDGSYPYYFDYWGQGTTLTVSS
VL: ENVLTQSPAIMSASPGEKVTMTCSASSSVSYMHWYQQKSSTSPKLWIYDTSKLASGVPGRFSGSGSGNSYSLTISSMEAEDVATYYCFQGSGYPLTFGSGTKLEIKR
On to B7, for which the binding result in assay [1] and in assay [2] was “binds” each time.

B8: 3E1 (antibody, V domains shown)
VH: QVQLQQSGAELAKPGASVRLSCQASGYTFTSYWMHWVKQRPRQGLEWIGYIIPSSGYTKCHQKFKDKATLTADKSSSTAYMQLSSLTYEDSAVYYCARSTSGYPYYFDSWGQGTTLTVSS
VL: ENVLTQSPAIMSASPGERVTMTCSATSSVSFMHWYQQKSSTSPKLWIYDTSKLASGVPGRFSGSGSGNSYSLTISSMEAEDVATYYCFQGSWYPLTFGAGTKLELKR
notes: as for B1
Turning to B8, the binding result in assay [1] and in assay [2] was “binds” throughout.

B9: 5A5 (antibody, V domains shown)
VH: QVQLQQSGAELAKPGASVRLSCQASGYTFTTYWMHWVKQRPRQGLEWIGYIIPSSGYSKCHQKFKDKATLTADKSSNTASMQLSSLTYEDSAVYYCARSTSGYPYYFDYWGQGTTLTVSS
VL: ENVLTQSPAIMSASPGEKVTMTCSATSSVSYMHWYQQKSSTSPKLWIYDTSKLASGVPGRFSGSGSGNSYSLTISSMEAEDVATYYCFQGSWYPLTFGAGTKLELKR
notes: as for B1
Take B9: the binding result in assay [1] and in assay [2] was “binds” in each case.

B10: 4E4 (antibody, V domains shown)
VH: QVQLQQPGAELVKPGASVKLSCKASGYTFTSYWMHWVKQRPGQGLEWIGMIHPNSGSTNYNEKFKNKATLTVDKSSSTAYMQLSSLTSEDSAVYYCAPRMFDDYDDYWGQGTTLTVSS
VL: QIVLTQSPAIMSASLGERVTMTCTASSSVSSSYLHWYQQKPGSSPKLWIYSTSNLASGVPVRFSGSGSGTSYSLTISRMEAEDAATYYCHHYHRSPYTFGGGTKLEIKR
notes: as for B1
On to B10, for which the binding result in assay [1] and in assay [2] was “binds” each time.

B11: 3E4 (antibody, V domains shown)
VH: QVQLQQPGAELVKPGASVKLSCKASGYTFTSQWMHWVKQRPGQGLEWIGMIHPNSGSTNNNEKFKSKATLTVDKSSSTAYMQLSSLTSEDSAVYYCTRWAMDYWGQGTSVTASS
VL: DVVMTQTPLSLPVSLGDLASISCRSSQSLVHSNGNTYLHWYLQKPGQSPKLLIFKVSNRFSGVPDRFSGSGSGTDFTLKISRVEAEDLGVYFCSQSTHVPWTFGGGTKLEIKR
notes: as for B1
Regarding B11, the binding result in assay [1] and in assay [2] was “binds” in each case.
